Results reported in patent US20030236190A1 (published 2003).
Positions of bridges follow the written chain, without caps; N, C: chain ends. No end group written: not given here.

B1: 20E2B-2-88-IGFR (peptide)
peptide: IWATGDFYRLLSQLVMGRVGT
B2: NNRPy-4-A9-IR (peptide)
peptide: EGSGFYGYFFSLLGLQG
B3: 20E2B-3-D4-IGFR (peptide)
peptide: NSRDGGFYLQLERLLGFPVTG
B4: B6Hα-2-C7-IR (peptide)
peptide: RGIVAMVEATEVGSDHDPFYHKLSELVQGS
B5: 20E22-1-A8-IGFR (peptide)
peptide: TLRSPTFYDWLEMVLTHGQGG
B6: 20E2B-3-D11-IGFR (peptide)
peptide: LGVTDGFYAALGYLIHGVGQF
B7: 20E2B-4-G11-IGFR (peptide)
peptide: RQGTGSFYLMLEQLLVGARGP
B8: 20E2B-4-H8-IGFR (peptide)
peptide: PAGPCGFYCGLGLLLHGDQSP
modifications: disulfide 5-9 (inferred)
B9: 20E2H-3-E12-IGFR (peptide)
peptide: VATSQGFYSGLSELLQGGGNV
B10: B6Eα-2-C10-IR (peptide)
peptide: SGAKVIVVTGDSGDPFYHKLSELLQGS
B11: 20E2B-2-B7-IGFR (peptide)
peptide: LSSDGQFYRALNLLLQGSAGR
B12: 20E22-4-F8-IGFR (peptide)
peptide: PVGVQGFYEGLSRLVLGRGGW
B13: 20E2B-4-F9-IGFR (peptide)
peptide: QPDHSYFYSLLQELVGSEERL
B14: B6Hα-2-D6-IR (peptide)
peptide: GRTMAVMAAGGPDDPFYHKLSELVQGG
B15: 20E2B-3-C8-IGFR (peptide)
peptide: QPAPDGFYSALMKLIGRGGVS
B16: 20E2B-3-D12-IGFR (peptide)
peptide: QGNVLDFYGWIGRLLAKQGSD
B17: 20E2B-2-22-IGFR (peptide)
peptide: PGTDLGFYQALRCVVIQGACD
modifications: not fully specified (bridges); cysteine pairing not given here
B18: 20E2B-2-B3-IGFR (peptide)
peptide: ICTGQGFYQVLCGLLRGTSAR
modifications: disulfide 2-12 (inferred)
B19: R20α-4-20C11-IR (peptide)
peptide: DRAFYNGLRDLVGAVYGAWD
B20: NNRPγ-4-A7-IR (peptide)
peptide: RFDPFYSYFVNLLGASA
B21: 20E2B-4-E9-IGFR (peptide)
peptide: RCQGTGFYTCIQELIGFGDPD
modifications: disulfide 2-10 (inferred)
B22: 20C-3-E4-IGFR (peptide)
peptide: FFYRCLSRLLGGQLGSRLGLSCIGD
modifications: disulfide 5-22 (inferred)
B23: 20E2B-3-C4-1GFR (peptide)
peptide: ASSASGFYELLQRLAGLGLEV
B24: 20C-3-A4-IGFR (peptide)
peptide: QFYGCLLDLSLGVPSFGWRRRCITA
modifications: disulfide 5-22 (inferred)
B25: 20E28-3-D6-IGFR (peptide)
peptide: DSVGDNFYQLLESLVGGHGVG
B26: 20E2A-3-C7-IGFR (peptide)
peptide: VGTVAGFYDAIAQLVARASRV
B27: 20E28-1-A11-ICFR (peptide)
peptide: RFSTDGFYQYLLALVGGGPVG
B28: NNRPγ-4-A1-IR (peptide)
peptide: IIGGFYSYFNSVLRLGT
B29: B6Hα-3-F10-IR (peptide)
peptide: GCVVEWQKWHGASDPFYHKLSELGGCS
modifications: disulfide 2-26 (inferred)
B30: 26Hα-3-E8-IR (peptide)
peptide: RGKTAAVIVGRPADPFYHKLSELLQGG

Legend:
[1] = target: T1, Soluble IGF-1R (R&D Systems, Cat. # 391-GR/CF); recombinant human IGF-1R (human, UniProt P08069 31-935); assay: phage ELISA vs milk
T1 construct: extracellular domain; Eu3+-labelled in the TR-FRET assays; also called sIGF-1R; rhIGF-1R

[2] = target: T2, Insulin receptor prepared according to Bass et al., 1996: soluble human insulin receptor-immunoglobulin heavy … (human, UniProt P06213 28-956); assay: phage ELISA vs milk
T2 construct: extracellular domain; Eu3+-labelled in TR-FRET; also called IR; sIR-Fc; not shown: immunoglobulin heavy chain constant domains that replace the transmembrane and i

[3] = target: T1, Soluble IGF-1R (R&D Systems, Cat. # …); assay: phage ELISA, vs IR
[4] = target: T2, Insulin receptor prepared according to …; assay: phage ELISA, vs IGF-1R

Binder | Ratio over Background [1] | Ratio over Background [2] | IGF-1R/IR Comparison [3] | IR/IGF-1R Comparison [4]
B1 | 5.7 fold | 0.8 fold | 7.2 ratio | 0.1 ratio
B2 | 10 fold | 1.4 fold | 7.1 ratio | 0.1 ratio
B3 | 7.9 fold | 0.8 fold | 9.6 ratio | 0.1 ratio
B4 | 6.7 fold | 1 fold | 6.7 ratio | 0.1 ratio
B5 | 4.4 fold | 0.9 fold | 5 ratio | 0.2 ratio
B6 | 12.2 fold | 1.6 fold | 7.6 ratio | 0.1 ratio
B7 | 4.5 fold | 0.6 fold | 7 ratio | 0.1 ratio
B8 | 5.3 fold | 0.9 fold | 5.9 ratio | 0.2 ratio
B9 | 6 fold | 0.8 fold | 7.3 ratio | 0.1 ratio
B10 | 5.8 fold | 1.1 fold | 5.3 ratio | 0.2 ratio
B11 | 6.1 fold | 0.9 fold | 6.7 ratio | 0.1 ratio
B12 | 7.3 fold | 0.8 fold | 9.7 ratio | 0.1 ratio
B13 | 14.7 fold | 1.9 fold | 7.7 ratio | 0.1 ratio
B14 | 4.4 fold | 1 fold | 4.4 ratio | 0.2 ratio
B15 | 15.6 fold | 1.8 fold | 8.9 ratio | 0.1 ratio
B16 | 6.2 fold | 0.9 fold | 7.3 ratio | 0.1 ratio
B17 | 4.9 fold | 0.6 fold | 8.1 ratio | 0.1 ratio
B18 | 5.3 fold | 0.7 fold | 7.4 ratio | 0.1 ratio
B19 | 30.8 fold | 3 fold | 10.3 ratio | 0.1 ratio
B20 | 6.3 fold | 1.3 fold | 4.9 ratio | 0.2 ratio
B21 | 5.2 fold | 0.9 fold | 5.6 ratio | 0.2 ratio
B22 | 7.7 fold | 1.3 fold | 6 ratio | 0.2 ratio
B23 | 20.4 fold | 3.3 fold | 6.2 ratio | 0.2 ratio
B24 | 8.8 fold | 1.2 fold | 7.6 ratio | 0.1 ratio
B25 | 17.8 fold | 2.6 fold | 6.9 ratio | 0.1 ratio
B26 | 5.4 fold | 1.1 fold | 5.1 ratio | 0.2 ratio
B27 | 9.5 fold | 1 fold | 9.7 ratio | 0.1 ratio
B28 | 10.9 fold | 1.8 fold | 6 ratio | 0.2 ratio
B29 | 8.8 fold | 1.9 fold | 4.6 ratio | 0.2 ratio
B30 | 5.3 fold | 1.1 fold | 4.8 ratio | 0.2 ratio
